From patent EP1992633A1 (HUMAN GENOME SCIENCES, INC., dated 2008)

How the values were obtained:
Test in all cases: method not described (cites Mazzei et al. 1995)
DR3 = molecular target: T1, DR3 (UniProt Q93038 25-199, limits assumed)
T1 sequence (looked up): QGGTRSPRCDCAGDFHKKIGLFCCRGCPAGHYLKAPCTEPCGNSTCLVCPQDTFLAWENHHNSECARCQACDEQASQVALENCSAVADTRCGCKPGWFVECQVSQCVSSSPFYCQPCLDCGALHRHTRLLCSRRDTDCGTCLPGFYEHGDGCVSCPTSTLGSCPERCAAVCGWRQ

TNFR1 = molecular target: T2, TNFR1 (UniProt P19438 30-211, limits assumed)
T2 sequence (looked up): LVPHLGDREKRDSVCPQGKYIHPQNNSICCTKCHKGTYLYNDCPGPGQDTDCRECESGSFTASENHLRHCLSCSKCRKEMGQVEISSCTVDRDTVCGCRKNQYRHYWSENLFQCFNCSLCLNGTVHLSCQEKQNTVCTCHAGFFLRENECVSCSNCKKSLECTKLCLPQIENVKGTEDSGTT

TNFR2 = molecular target: T3, TNFR2 (UniProt P20333 23-257, limits assumed)
T3 sequence (looked up): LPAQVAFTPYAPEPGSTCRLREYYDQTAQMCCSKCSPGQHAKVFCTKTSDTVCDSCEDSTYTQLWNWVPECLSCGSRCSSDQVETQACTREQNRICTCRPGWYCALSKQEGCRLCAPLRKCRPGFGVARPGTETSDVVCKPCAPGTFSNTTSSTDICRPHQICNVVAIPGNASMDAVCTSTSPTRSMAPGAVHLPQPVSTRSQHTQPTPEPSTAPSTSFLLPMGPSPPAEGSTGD

Fas = molecular target: T4, Fas (UniProt P25445 26-173, limits assumed)
T4 sequence (looked up): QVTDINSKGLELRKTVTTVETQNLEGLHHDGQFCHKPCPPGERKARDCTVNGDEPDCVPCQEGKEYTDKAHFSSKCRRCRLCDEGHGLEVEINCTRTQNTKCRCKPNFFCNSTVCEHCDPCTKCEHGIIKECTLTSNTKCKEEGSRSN

DR4 = molecular target: T5, DR4 (UniProt O00220 24-239, limits assumed)
T5 sequence (looked up): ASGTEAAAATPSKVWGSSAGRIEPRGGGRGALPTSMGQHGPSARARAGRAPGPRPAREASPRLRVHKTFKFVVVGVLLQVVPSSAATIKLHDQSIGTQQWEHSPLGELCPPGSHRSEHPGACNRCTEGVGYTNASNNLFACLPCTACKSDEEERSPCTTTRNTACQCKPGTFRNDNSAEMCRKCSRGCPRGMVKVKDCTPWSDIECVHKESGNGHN

binding result (DR3): no binding | binding result (TNFR1): no binding | binding result (TNFR2): no binding | binding result (Fas): no binding | binding result (DR4): no binding
B1: truncated version of VEGI-alpha corresponding to the putative extracellular domain consisting of residues 38-174, expressed in E. coli (ligand)
chain: ALHWEHELGLAFTKNRMNYTNKFLLIPESGDYFIYSQVTFRGMTSECSEIRQAGRPNKPDSITVVITKVTDSYPEPTQLLMGTKSVCEVGSNWFQPIYLGAMFSLQEGDKLMVNVSDISLVDYTKEDKTFFGAFLL
notes: also called VEGI-alpha deletion mutant; the mutant
